Reference: patent publication US20180291081A1 (GUANGZHOU INSTITUTES OF BIOMEDICINE AND HEALTH CHINESE …, published 2018)
Where a chain is given by its changes, count along the chain named.

B1: high affinity PDL-1 molecule L1A4 (ligand)
chain: WTVTVPKDLYVVEYGSNMTIECKFPVEKQLDLAALQVFWMMEDKNIIQFVHGEEDLKVQHSSYRQRARLLKDQLSLGNAALQITDVKLQDAGVYTCLISYGGADYKRITVKVNAPYNKINQRILVVDPVTSEHELTCQAEGYPKAEVIWTSSDHQVLSGKTTTTNSKREEKLFNVTSTLRINTTTNEIFYCTFRRLDPEENHTAELVIPEL
B2: high affinity PDL-1 molecule L1C2 (ligand)
chain: B1 chain with W1F, F38N, M40F, T95V
B3: high affinity PDL-1 molecule L1F2 (ligand)
chain: B1 chain with W1F, F38N, M40L, T95L
B4: high affinity PDL-1 molecule L2A6 (ligand)
chain: B1 chain with W1F, F38H, M40F, I47A, Q48S, T95R, L97M, L124R
B5: high affinity PDL-1 molecule L2B6 (ligand)
chain: B1 chain with W1F, Q36E, F38H, M40F, I47V, Q48S, T95R, L97M, L124R
B6: high affinity PDL-1 molecule L2B8 (ligand)
chain: B1 chain with W1F, F38H, M40F, I47V, Q48S, T95R, L97M
B7: high affinity PDL-1 molecule L2C4 (ligand)
chain: B1 chain with W1F, F38H, M40W, I47V, Q48S, T95R, L97M
B8: high affinity PDL-1 molecule L2D7 (ligand)
chain: B1 chain with W1F, Q36E, F38H, M40F, I47L, Q48S, T95R, L97M
B9: high affinity PDL-1 molecule L2F4 (ligand)
chain: B1 chain with W1F, Q36E, F38H, M40F, I47F, Q48S, T95R, L97M
B10: high affinity PDL-1 molecule L2F5 (ligand)
chain: B1 chain with W1F, Q36E, F38H, M40F, I47S, Q48S, T95R, L97M
B11: high affinity PDL-1 molecule L2G10 (ligand)
chain: B1 chain with W1F, F38H, M40F, I47Y, Q48S, T95R, L97M
B12: high affinity PDL-1 molecule L2H3 (ligand)
chain: B1 chain with W1F, F38H, M40F, I47L, Q48S, T95R, L97M
B13: high affinity PDL-1 molecule L3B3 (ligand)
chain: B1 chain with W1F, S99A, G101K
B14: high affinity PDL-1 molecule L3B3C (ligand)
chain: B1 chain with I47V, Q48S, T95V, S99A, G101K
B15: high affinity PDL-1 molecule L3B3a (ligand)
chain: B1 chain with W1F, I47V, Q48S, S99A, G101K
B16: high affinity PDL-1 molecule L3B3b (ligand)
chain: B1 chain with W1F, I47V, Q48S, T95V, S99A, G101K
B17: high affinity PDL-1 molecule L3B3d (ligand)
chain: B1 chain with I47L, Q48S, T95V, S99A, G101K
B18: high affinity PDL-1 molecule L3C7 (ligand)
chain: B1 chain with W1F, Q36E, F38H, M40F, S99G, G101K
B19: high affinity PDL-1 molecule L3C7a (ligand)
chain: B1 chain with W1F, Q36E, F38H, M40F, I47F, Q48S, S99G, G101K
B20: high affinity PDL-1 molecule L3C7b (ligand)
chain: B1 chain with W1F, Q36E, F38H, M40F, I47F, Q48S, T95V, S99G, G101K
B21: high affinity PDL-1 molecule L3C7c (ligand)
chain: B1 chain with Q36E, F38H, M40F, I47F, Q48S, S99G, G101K
B22: high affinity PDL-1 molecule L3D9 (ligand)
chain: B1 chain with W1F, Q36N, M40F, S99G, G101E
B23: high affinity PDL-1 molecule L3G10 (ligand)
chain: B1 chain with W1F, Q36T, F38A, M40Y, S99G, G101D
B24: high affinity PDL-1 molecule L22A5 (ligand)
chain: B1 chain with W1F, F38H, M40F, I47P, Q48S, T95R, L97M
B25: high affinity PDL-1 molecule L22C7 (ligand)
chain: B1 chain with W1F, Q36E, F38H, M40F, Q48S, T95R, L97M
B26: high affinity PDL-1 molecule L22D5 (ligand)
chain: B1 chain with W1F, F38H, M40F, I47F, Q48S, T95R, L97M
B27: high affinity PDL-1 molecule L32G5 (ligand)
chain: B1 chain with W1F, Q36I, F38Y, M40E, S99G, G101H
B28: high affinity PDL-1 molecule L3C7d (ligand)
chain: WTVTVPKDLYVVEYGSNMTIECKFPVEKQLDLAALEVHWFMEDKNIFSFVHGEEDLKVQHSSYRQRARLLKDQLSLGNAALQITDVKLQDAGVYTCLIGYKGGADYKRITVKVNAPYNKINQRILVVDPVTSEHELTCQAEGYPKAEVIWTSSDHQVLSGKTTTTNSKREEKLFNVTSTLRINTTTNEIFYCTFRRLDPEENHTAELVIPEL

molecular target: T1, PD-1 molecule (refolded, purified and biotinylated PD-1 of Example 2) (UniProt Q15116 33-150, biotinylated with BirA enzyme (site not stated)); test: SPR (BIAcore T200), single-cycle kinetics; biotinylated PD-1 captured via streptavidin, PDL-1 variant in solution
T1 construct: also called Programmed Death-1
Experimental: The anti-streptavidin antibody (GenScript) was added to the coupling buffer (10 mM sodium acetate buffer, pH 4.77). The antibody was then flowed through a CMS chip previously activated with EDC and NHS to immobilize the antibody on the chip surface. Finally, the unreacted activation surface was blocked with a solution of ethanolamine hydrochloride to complete the coupling process.
A low concentration of streptavidin is allowed to flow over the surface of the antibody-coated chip, then the biotinylated PD-1 is passed through the detection channel and the other channel is used as a reference channel. Then, 0.05 mM biotin was passed through the chip at a flow rate of 10 μL/min for 2 min to block the remaining binding sites of streptavidin. The single-cycle kinetic analysis method was used to measure its affinity. […] The binding time for each injection was 120 s, and it was disassociated for 600 s after the last injection. The chips were regenerated with 10 mMGly-HCl, pH 1.75 after each round of assays. Kinetic parameters were calculated using BIAcore Evaluation software.

T1 sequence (Q15116 33-150 limits assumed): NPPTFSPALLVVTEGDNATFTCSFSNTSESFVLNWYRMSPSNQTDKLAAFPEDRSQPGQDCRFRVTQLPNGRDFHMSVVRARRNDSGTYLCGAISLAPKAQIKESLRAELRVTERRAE

Point of comparison: B14, Kd 0.648 µM. Against it:
- B1 — within 1.5-fold, 0.914 µM
- B2 — within 1.5-fold, 0.751 µM
- B3 — 5.3-fold higher, 3.44 µM
- B4 — 7.3-fold higher, 4.74 µM
- B5 — 16-fold higher, 10.3 µM
- B6 — 18-fold higher, 11.7 µM
- B7 — 17-fold higher, 11.2 µM
- B8 — 17-fold higher, 10.9 µM
- B9 — 12-fold higher, 7.54 µM
- B10 — 16-fold higher, 10.1 µM
- B11 — 7.1-fold higher, 4.6 µM
- B12 — 14-fold higher, 8.97 µM
- B13 — within 1.5-fold, 0.499 µM
- B15 — within 1.5-fold, 0.557 µM
- B16 — within 1.5-fold, 0.666 µM
- B17 — within 1.5-fold, 0.964 µM
- B18 — within 1.5-fold, 0.75 µM
- B19 — 5.6-fold lower, 0.115 µM
- B20 — 5.3-fold lower, 0.123 µM
- B21 — 6.1-fold lower, 0.106 µM
- B22 — 5.2-fold higher, 3.39 µM
- B23 — 18-fold higher, 11.8 µM
- B24 — 7.5-fold higher, 4.84 µM
- B25 — 18-fold higher, 11.9 µM
- B26 — 10-fold higher, 6.48 µM
- B27 — 4.6-fold higher, 2.98 µM
- B28 — 12-fold lower, 0.0539 µM

Point of comparison: B16, koff 0.0573 s⁻¹. Against it:
- B1 — within 1.5-fold, 0.0439 s⁻¹
- B2 — 1.5-fold lower, 0.0376 s⁻¹
- B3 — 1.8-fold higher, 0.104 s⁻¹
- B4 — within 1.5-fold, 0.0458 s⁻¹
- B5 — 2.3-fold higher, 0.134 s⁻¹
- B6 — 2.6-fold higher, 0.15 s⁻¹
- B7 — 2.2-fold higher, 0.124 s⁻¹
- B8 — 2.1-fold higher, 0.123 s⁻¹
- B9 — 2.7-fold higher, 0.154 s⁻¹
- B10 — 2.1-fold higher, 0.122 s⁻¹
- B11 — 3.1-fold higher, 0.178 s⁻¹
- B12 — 2.7-fold higher, 0.153 s⁻¹
- B13 — within 1.5-fold, 0.071 s⁻¹
- B14 — within 1.5-fold, 0.044 s⁻¹
- B15 — 1.6-fold higher, 0.09 s⁻¹
- B17 — within 1.5-fold, 0.0526 s⁻¹
- B18 — 1.7-fold lower, 0.0329 s⁻¹
- B19 — 4.1-fold lower, 0.0139 s⁻¹
- B20 — 3.3-fold lower, 0.0176 s⁻¹
- B21 — 3.7-fold lower, 0.0155 s⁻¹
- B22 — 1.5-fold higher, 0.0871 s⁻¹
- B23 — 4.6-fold higher, 0.263 s⁻¹
- B24 — within 1.5-fold, 0.0559 s⁻¹
- B25 — 2.3-fold higher, 0.133 s⁻¹
- B26 — 4.7-fold higher, 0.268 s⁻¹
- B27 — 2.9-fold higher, 0.169 s⁻¹
- B28 — 9.7-fold lower, 0.0059 s⁻¹

Point of comparison: B20, kon 143000 M⁻¹ s⁻¹. Against it:
- B1 — 3-fold lower, 48000 M⁻¹ s⁻¹
- B2 — 2.9-fold lower, 50100 M⁻¹ s⁻¹
- B3 — 4.7-fold lower, 30200 M⁻¹ s⁻¹
- B4 — 15-fold lower, 9670 M⁻¹ s⁻¹
- B5 — 11-fold lower, 13000 M⁻¹ s⁻¹
- B6 — 11-fold lower, 12800 M⁻¹ s⁻¹
- B7 — 13-fold lower, 11000 M⁻¹ s⁻¹
- B8 — 13-fold lower, 11300 M⁻¹ s⁻¹
- B9 — 7-fold lower, 20500 M⁻¹ s⁻¹
- B10 — 12-fold lower, 12200 M⁻¹ s⁻¹
- B11 — 3.7-fold lower, 38700 M⁻¹ s⁻¹
- B12 — 8.4-fold lower, 17100 M⁻¹ s⁻¹
- B13 — within 1.5-fold, 142000 M⁻¹ s⁻¹
- B14 — 2.1-fold lower, 67800 M⁻¹ s⁻¹
- B15 — within 1.5-fold, 162000 M⁻¹ s⁻¹
- B16 — 1.7-fold lower, 86000 M⁻¹ s⁻¹
- B17 — 2.6-fold lower, 54500 M⁻¹ s⁻¹
- B18 — 3.3-fold lower, 43900 M⁻¹ s⁻¹
- B19 — within 1.5-fold, 120000 M⁻¹ s⁻¹
- B21 — within 1.5-fold, 147000 M⁻¹ s⁻¹
- B22 — 5.6-fold lower, 25700 M⁻¹ s⁻¹
- B23 — 6.4-fold lower, 22200 M⁻¹ s⁻¹
- B24 — 12-fold lower, 11500 M⁻¹ s⁻¹
- B25 — 13-fold lower, 11200 M⁻¹ s⁻¹
- B26 — 3.5-fold lower, 41400 M⁻¹ s⁻¹
- B27 — 2.5-fold lower, 56600 M⁻¹ s⁻¹
- B28 — within 1.5-fold, 109000 M⁻¹ s⁻¹
